The values below come from article PMC9482650, “Quantitative fragmentomics allow affinity mapping of interactomes” (Nature Communications, 2022).

Some targets named below: DLG1_2, Q12959; DLG4_2, P78352; FRMPD2_3, Q68DX3; Inadl_3, Q8NI35; Inadl_5, Q8NI35; LIMK2, P53671; PDLIM1, O00151; TJP1_3, Q07157.
What all share (assay): holdup assay
What all share (set-up): key: below the threshold = too weak to quantify, mostly under pKd 3.1 to 4
Settings in all cases: plain residues with an end cap or a label only (N-terminal biotin on a linker: ado-ado)

In the next experiment the target is T1, APBA2_2, Q99767.
T1 sequence (Q99767 654-744, limits assumed, looked up): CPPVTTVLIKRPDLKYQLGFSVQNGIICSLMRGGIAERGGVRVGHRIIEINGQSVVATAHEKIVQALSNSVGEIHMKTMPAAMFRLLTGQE

The next experiment deals with T2, ARHGAP21, Q5T5U3.
T2 sequence (Q5T5U3 45-169, limits assumed, looked up): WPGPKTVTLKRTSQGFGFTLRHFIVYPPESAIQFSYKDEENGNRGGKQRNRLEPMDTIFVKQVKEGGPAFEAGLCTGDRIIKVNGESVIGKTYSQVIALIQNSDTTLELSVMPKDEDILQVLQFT

The next experiment concerns the target T3, DLG3_2, Q92796.
T3 sequence (Q92796 221-321, limits assumed, looked up): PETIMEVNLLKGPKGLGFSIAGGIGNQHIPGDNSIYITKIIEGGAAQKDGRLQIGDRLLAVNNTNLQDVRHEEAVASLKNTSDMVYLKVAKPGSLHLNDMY

The next experiment deals with T4, DVL3, Q92997.
T4 sequence (Q92997 244-331, limits assumed, looked up): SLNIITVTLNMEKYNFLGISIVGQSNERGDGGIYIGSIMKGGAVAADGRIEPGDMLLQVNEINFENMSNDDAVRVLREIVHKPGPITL

The target of the next experiment is T5, HTRA4, P83105.
T5 sequence (P83105 378-476, limits assumed, looked up): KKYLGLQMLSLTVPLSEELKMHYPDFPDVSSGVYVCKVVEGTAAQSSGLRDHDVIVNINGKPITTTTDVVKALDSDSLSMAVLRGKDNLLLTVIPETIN

A further experiment has as its target T6, LNX2_3, Q8N448.
T6 sequence (Q8N448 463-564, limits assumed, looked up): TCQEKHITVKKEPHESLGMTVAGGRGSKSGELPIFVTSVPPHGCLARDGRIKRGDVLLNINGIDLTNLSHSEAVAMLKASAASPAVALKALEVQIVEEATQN

A further experiment concerns the target T7, MPP6, Q9NZW5.
T7 sequence (Q9NZW5 125-219, limits assumed, looked up): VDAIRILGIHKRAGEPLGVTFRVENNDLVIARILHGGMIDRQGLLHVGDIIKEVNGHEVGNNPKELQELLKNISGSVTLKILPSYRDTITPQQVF

For another experiment, the target named is T8, NHERF3_1, Q5T2W1.
T8 sequence (Q5T2W1 4-100, limits assumed, looked up): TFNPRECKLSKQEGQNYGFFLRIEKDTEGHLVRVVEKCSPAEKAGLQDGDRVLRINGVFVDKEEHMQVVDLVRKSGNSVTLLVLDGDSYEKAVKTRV

The next experiment has as its target T9, PDZD2_2, O15018.
T9 sequence (O15018 329-429, limits assumed, looked up): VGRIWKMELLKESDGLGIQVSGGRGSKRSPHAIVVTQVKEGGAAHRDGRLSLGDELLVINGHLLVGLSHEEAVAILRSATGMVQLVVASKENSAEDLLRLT

For the next experiment, the target named is T10, RADIL, Q96JH8.
T10 sequence (Q96JH8 971-1071, limits assumed, looked up): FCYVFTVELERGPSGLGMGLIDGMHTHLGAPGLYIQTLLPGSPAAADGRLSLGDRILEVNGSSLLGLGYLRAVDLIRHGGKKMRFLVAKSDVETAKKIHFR

Another experiment deals with T11, RAPGEF6, Q8TEU7.
T11 sequence (Q8TEU7 525-625, limits assumed, looked up): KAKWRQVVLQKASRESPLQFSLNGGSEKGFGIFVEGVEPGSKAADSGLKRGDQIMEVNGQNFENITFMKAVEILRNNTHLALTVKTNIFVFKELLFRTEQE

The target of a further experiment is T12, SNTB1, Q13884.
T12 sequence (Q13884 107-205, limits assumed, looked up): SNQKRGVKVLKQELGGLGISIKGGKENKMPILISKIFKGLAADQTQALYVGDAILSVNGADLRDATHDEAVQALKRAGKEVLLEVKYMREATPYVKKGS

In a further experiment the target is T13, SNTG1, Q9NSN8.
T13 sequence (Q9NSN8 52-150, limits assumed, looked up): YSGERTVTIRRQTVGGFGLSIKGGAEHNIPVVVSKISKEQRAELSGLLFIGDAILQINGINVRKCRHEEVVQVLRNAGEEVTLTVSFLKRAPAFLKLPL

A further experiment has as its target T14, TIAM2, Q8IVF5.
T14 sequence (Q8IVF5 885-986, limits assumed, looked up): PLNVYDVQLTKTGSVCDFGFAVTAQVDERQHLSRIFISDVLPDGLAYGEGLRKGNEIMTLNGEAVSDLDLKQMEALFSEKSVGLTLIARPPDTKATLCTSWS

Sequence of Inadl_5, Q8NI35 (Q8NI35 673-780): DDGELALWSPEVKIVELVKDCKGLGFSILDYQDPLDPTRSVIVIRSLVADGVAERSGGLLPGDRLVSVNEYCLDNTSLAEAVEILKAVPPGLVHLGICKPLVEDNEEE
Sequence of LIMK2, P53671 (P53671 143-248): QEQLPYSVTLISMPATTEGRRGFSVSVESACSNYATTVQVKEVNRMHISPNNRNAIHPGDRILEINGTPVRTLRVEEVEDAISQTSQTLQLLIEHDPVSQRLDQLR
Sequence of TJP1_3, Q07157 (Q07157 416-512): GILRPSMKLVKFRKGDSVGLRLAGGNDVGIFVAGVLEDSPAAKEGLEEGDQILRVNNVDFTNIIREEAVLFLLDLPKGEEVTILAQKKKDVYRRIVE
Sequence of PDLIM1, O00151 (O00151 1-87): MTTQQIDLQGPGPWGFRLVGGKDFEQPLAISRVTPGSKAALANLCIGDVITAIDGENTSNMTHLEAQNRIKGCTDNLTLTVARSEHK
Sequence of FRMPD2_3, Q68DX3 (Q68DX3 1073-1166): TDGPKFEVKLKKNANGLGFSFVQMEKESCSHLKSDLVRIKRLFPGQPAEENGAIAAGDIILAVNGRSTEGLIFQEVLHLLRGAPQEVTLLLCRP
Sequence of DLG1_2, Q12959 (Q12959 314-412): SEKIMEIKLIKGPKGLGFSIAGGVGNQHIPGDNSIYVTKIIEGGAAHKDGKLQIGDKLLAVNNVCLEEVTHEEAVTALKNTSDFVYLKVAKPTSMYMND
Sequence of DLG4_2, P78352 (P78352 155-259): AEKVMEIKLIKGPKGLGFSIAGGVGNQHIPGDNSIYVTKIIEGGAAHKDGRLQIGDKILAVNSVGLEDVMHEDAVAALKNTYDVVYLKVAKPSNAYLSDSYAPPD
Sequence of Inadl_3, Q8NI35 (Q8NI35 359-469): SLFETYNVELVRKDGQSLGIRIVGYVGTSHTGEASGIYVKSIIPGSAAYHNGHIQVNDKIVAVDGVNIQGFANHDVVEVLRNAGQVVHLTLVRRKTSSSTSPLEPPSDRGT

B1: LPAR1, Q92633 (peptide)
chain: GVHSNDHSVV
For B1, the pKd result was “below the threshold” in the experiment with APBA2_2, Q99767; “below the threshold” with ARHGAP21, Q5T5U3; 3.99 with DLG1_2, Q12959; 4.42 in the experiment with DLG3_2, Q92796; 4.01 with DLG4_2, P78352; “below the threshold” with DVL3, Q92997. The pKd result with FRMPD2_3, Q68DX3 is recorded as “below the threshold”; with HTRA4, P83105 it was “below the threshold”; with Inadl_3, Q8NI35, “below the threshold”; in the experiment with Inadl_5, Q8NI35 it was “below the threshold”; with LIMK2, P53671 it was “below the threshold”; with LNX2_3, Q8N448 it was “below the threshold”. Besides, the negative logarithm of the Kd (pKd) entry with MPP6, Q9NZW5 is “below the threshold”; with NHERF3_1, Q5T2W1 it was “below the threshold”; with PDLIM1, O00151, “below the threshold”; with PDZD2_2, O15018, 4.99; with RADIL, Q96JH8, 3.62; with RAPGEF6, Q8TEU7, “below the threshold”. In addition, the pKd in the experiment with SNTB1, Q13884 is 3.69; in the experiment with SNTG1, Q9NSN8, “below the threshold”; with TIAM2, Q8IVF5, 3.94; with TJP1_3, Q07157, “below the threshold”.

B2: DFNB31, Q9P202 (peptide)
chain: FLVTEFNVML
For the molecule B2, the pKd result with APBA2_2, Q99767 is “below the threshold”; in the experiment with ARHGAP21, Q5T5U3, 4.61; with DLG1_2, Q12959 it was “below the threshold”; with DLG3_2, Q92796, “below the threshold”; with DLG4_2, P78352, “below the threshold”; in the experiment with DVL3, Q92997 it was 3.66. Besides, the pKd entry with FRMPD2_3, Q68DX3 was “below the threshold”; in the experiment with HTRA4, P83105 it was “below the threshold”; in the experiment with Inadl_3, Q8NI35 it was 4.73; with Inadl_5, Q8NI35 it was “below the threshold”; with LIMK2, P53671 it was “below the threshold”; with LNX2_3, Q8N448, “below the threshold”. In addition, the negative-log Kd (pKd) entry in the experiment with MPP6, Q9NZW5 is “below the threshold”; with NHERF3_1, Q5T2W1, 4.88; with PDLIM1, O00151, 3.75; in the experiment with PDZD2_2, O15018 it was 3.63; with RADIL, Q96JH8, 4.78; with RAPGEF6, Q8TEU7 it was “below the threshold”. Moreover, the pKd entry with SNTB1, Q13884 was “below the threshold”; in the experiment with SNTG1, Q9NSN8, “below the threshold”; with TIAM2, Q8IVF5, 3.59; in the experiment with TJP1_3, Q07157, “below the threshold”.

B3: KCNA6, P17658 (peptide)
chain: YAEKRMLTEV
Take B3: the negative-log Kd (pKd) result in the experiment with APBA2_2, Q99767 is “below the threshold”; with ARHGAP21, Q5T5U3, “below the threshold”; with DLG1_2, Q12959 it was 4.23; with DLG3_2, Q92796, 4.6; in the experiment with DLG4_2, P78352, 4.23; with DVL3, Q92997, “below the threshold”. The pKd entry is “below the threshold” in the experiment with FRMPD2_3, Q68DX3; 4.38 with HTRA4, P83105; “below the threshold” with Inadl_3, Q8NI35; “below the threshold” with Inadl_5, Q8NI35; “below the threshold” with LIMK2, P53671; “below the threshold” with LNX2_3, Q8N448. Also, the pKd is 3.54 with MPP6, Q9NZW5; “below the threshold” with NHERF3_1, Q5T2W1; “below the threshold” with PDLIM1, O00151; 4.34 in the experiment with PDZD2_2, O15018; 3.97 in the experiment with RADIL, Q96JH8; 3.48 with RAPGEF6, Q8TEU7. For the same molecule, the pKd entry is “below the threshold” with SNTB1, Q13884; 3.57 with SNTG1, Q9NSN8; 3.99 in the experiment with TIAM2, Q8IVF5; “below the threshold” with TJP1_3, Q07157.

B4: CSPG4, Q6UVK1 (peptide)
chain: PALKNGQYWV
For B4, the pKd entry with APBA2_2, Q99767 is “below the threshold”; with ARHGAP21, Q5T5U3 it was “below the threshold”; in the experiment with DLG1_2, Q12959, “below the threshold”; with DLG3_2, Q92796 it was “below the threshold”; in the experiment with DLG4_2, P78352 it was “below the threshold”; in the experiment with DVL3, Q92997 it was 4.2. Moreover, the pKd result in the experiment with FRMPD2_3, Q68DX3 was “below the threshold”; with HTRA4, P83105, 4.14; with Inadl_3, Q8NI35, 3.58; in the experiment with Inadl_5, Q8NI35 it was 4.31; with LIMK2, P53671 it was “below the threshold”; with LNX2_3, Q8N448, “below the threshold”. Moreover, the negative-log Kd (pKd) with MPP6, Q9NZW5 was 3.83; with NHERF3_1, Q5T2W1, “below the threshold”; with PDLIM1, O00151, “below the threshold”; with PDZD2_2, O15018 it was 5.45; with RADIL, Q96JH8, 5.17; with RAPGEF6, Q8TEU7 it was “below the threshold”. Further, the pKd result was “below the threshold” in the experiment with SNTB1, Q13884; “below the threshold” in the experiment with SNTG1, Q9NSN8; 4.83 in the experiment with TIAM2, Q8IVF5; 3.95 in the experiment with TJP1_3, Q07157.

B5: SLC17A1, Q14916 (peptide)
chain: WAKEKQHTRL
Regarding B5, the negative-log Kd (pKd) result with APBA2_2, Q99767 is “below the threshold”; in the experiment with ARHGAP21, Q5T5U3 it was 3.81; with DLG1_2, Q12959, 4.27; with DLG3_2, Q92796 it was “below the threshold”; with DLG4_2, P78352, 4.04; with DVL3, Q92997, “below the threshold”. For the same molecule, the pKd result was “below the threshold” with FRMPD2_3, Q68DX3; “below the threshold” with HTRA4, P83105; “below the threshold” with Inadl_3, Q8NI35; “below the threshold” with Inadl_5, Q8NI35; “below the threshold” with LIMK2, P53671; “below the threshold” with LNX2_3, Q8N448. Also, the negative-log Kd (pKd) entry was “below the threshold” in the experiment with MPP6, Q9NZW5; 4.73 in the experiment with NHERF3_1, Q5T2W1; “below the threshold” with PDLIM1, O00151; “below the threshold” with PDZD2_2, O15018; “below the threshold” with RADIL, Q96JH8; “below the threshold” with RAPGEF6, Q8TEU7. The negative logarithm of the Kd (pKd) is 3.82 in the experiment with SNTB1, Q13884; “below the threshold” with SNTG1, Q9NSN8; “below the threshold” in the experiment with TIAM2, Q8IVF5; “below the threshold” with TJP1_3, Q07157.
